Laboratory results published in patent US11230591 (Merck Sharp & Dohme, dated 2022).

Assays:
[1] = target: T1, CMV virions; assay: virion ELISA
T1 construct: also called whole virions

[2] = target: gB on infectious CMV (neutralization assays) (human cytomegalovirus); assay: cell-based or functional assay

B1: 3-25 (antibody, V domains shown)
VH: QVQLVESGGGVVQPGRSLRLSCAASGFTFSNHGLHWVRQPPGKGLEWVAVVSKDGTNEHYADSVRGRFTISRDNSKNTLYLLMKSLRLEDTAVYYCAREGYCGDDRCYSGQPDYWGQGILVTVSS
VL: EIVLTQFPATLSLSPGERATLSCRASQSVGRYLAWYQQKPGQAPRLLIYDSSNRATGVPARFSGSGSGTDFTLSISSLEPEDFAVYFCQQRSHWPPLTFGGGTKVEIK
notes: also called antibody 3-25; clone 3-25
- EC50 [1]: 0.04 µg/mL
- EC50 Neutralizing [2]: 0.3 µg/mL
